No end group written: not given here.

The format of this data set is physicochemical. How it is done: The structure of the HKC2 was characterized by HPLC and mass spectroscopy, and a major peak at retention time at 8.053 min with a purity 90.0% was observed by RPHPLC. In the ESI-MS spectrum (FIG. 2B), a molecular ion peak was observed as double charged ion [M+2H]^2+. Similarly, triple charged, 4+ and 5+ species were also observed. It provided a molecular weight of 2683 Da, which is in good agreement with the theoretical value. […] This is a plus for its formulation with the siRNA in aqueous medium.

As for “K(HHHK)4CSSC (KHHHKHHHKHHHKHHHKCSSC; also: branched peptide, cross-linked through intermolecular disulfide bonds between cysteines into polymer (HKC2))”, the solubility in water entry was “readily soluble in water”.

Source of the values: US20210162067A1, “Composition and Methods of Controllable Co-Coupling Polypeptide Nanoparticle Delivery System for Nucleic Acid Therapeutics” (SIRNAOMICS, INC., priority 2018, published 2021).
